Experimental data from the nanobody polyreactivity screen of Harvey et al. (2022).

Assay: yeast display, Sf9 membrane polyspecificity reagent, FACS + sequencing; frameworks hold sequencing errors
Summary of the method: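 In a synthetic yeast display library (Saccharomyces cerevisiae BJ5465), nanobody expression was induced with galactose for 36–48 hours. FACS gates were set low and high (top ~1%) using anti-HA fluorescence for expression and streptavidin fluorescence for binding of the Sf9 membrane reagent. Each polyreactivity label is drawn from the gate of origin.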

Row | Sequence | polyreactivity (PSR sort gate)
1 | QVQLVESGGGLVQAGGSLRLSCAASGIIFSDYDMGWYRQAPGKERELVAAISWSGGSTYYADSVKGRFTISRDNAKNTVYLQMNSLKPEDTAVYYCAVDSQRQVTSRDDYWGQGTQVTVSS | low polyreactivity
2 | QVQLVESGGGLVQAGGSLRLSCAASGIIFSGNAMGWSRQAPGKERELVAAITLSGGSTYYADSVKGRFTISRDNAKNTVYLQMNSLKPEDTAVYYCNAVYDTKYSLRDIDTEYGSWGQGTQVTVSS | low polyreactivity
3 | QVQLVESGGGLVQAGGSLRLSCAASGIIFSGNAMGWYRQAPGKERELVAAITLSGGSTYYADSVKGRFTISRDNAKNTVYLQMNSLKPEDTAVYYCNAVYDTNYSLRDIDTEYGSWGQGTQVTVSS | low polyreactivity
4 | QVQLVESGGGLVQAGGSLRLSCAASGIIFSGYVMGWYRQAPGKERELVAAISSGGSTYYADSVKGRFTISRDNAKNTVYLQMNSLKPEDTAVYYCAAAGYWTLGYGYWGQGTQVTVSS | low polyreactivity
5 | QVQLVESGGGLVQAGGSLRLSCAASGIIFSTYAMGWYRQAPGKDRELVAAITSTGSTNYADSEKGRFTISRDNAKTTVSLQMNSLKPEDTAVYFCAARYAGPSPTDTGHDYWGQGTQVTVSS | low polyreactivity
6 | QVQLVESGGGLVQAGGSLRLSCAASGIIFSTYAMGWYRQAPGKERELDATITSSGSNTYYADSVKGRFTISRDNAKNTVYLQMNSLKPEDTAVYYCNAVASHYDFGYWGQGTQVTVSS | high polyreactivity
7 | QVQLVESGGGLVQAGGSLRLSCAASGIIFSYNFMGWYRQAPGKERELVAGISRSGGSTYYADSVKGRFTISRDNAKNTVYLQMNSLKPEDTAVYYCNTVERGQNRRPGDKARRYDWGQGTQVTVSS | high polyreactivity
8 | QVQLVESGGGLVQAGGSLRLSCAASGIIFSYYAMGWYRQAPGKERELVAAITSGGGSTYYADSVKGRFTISRDNAKNTVYLQMNSLKPEDTAVYYCAADYNRELGRKFEYWGQGSQVTVSS | high polyreactivity
9 | QVQLVESGGGLVQAGGSLRLSCAASGIIFTFNAMGWYRQAPGKERELVASISITGDTYYADSVKGRFTISRDNAKNTVYLQMNSLKPEDTAVYYCAAEYYFYSRHWYISYDYWGQGTQVTVSS | low polyreactivity
10 | QVQLVESGGGLVQAGGSLRLSCAASGIIFTFYTMGWYRQAPGKERELVAAITWSGGSTNYADSVKGRFTISRDNAKNTVYLQMNSLKPEDTAVYYCAAQGYPQSPPWEDYWGQGTQVTVSS | low polyreactivity
11 | QVQLVESGGGLVQAGGSLRLSCAASGIIFTGNAMGWYRQAPGKERELVAAITSGDTTNYADSVKGRFTISRDNAKNTVYLQKNSLKPEDTAVYYCAKELQVRQAGDYWGQGTQVTVSS | low polyreactivity
12 | QVQLVESGGGLVQAGGSLRLSCAASGIIFTGYAMGWYRQAPGKERELVAAISRSGGGTYYADSVKGRFTISRDNAKNTVYLQMNSLKPEDTAVDYCNRLRIAASYWQAYDYWGQGTQLTVSS | high polyreactivity
13 | QVQLVESGGGLVQAGGSLRLSCAASGIIFTKYVMGWYRQAPGKERELVAAINTDGGSTRYADSVKGRFTISRDNAKNTVYLQMNSLKPEDTAVYYCAAVSSRRPGYEYYYWGQGTQVTVSS | high polyreactivity
14 | QVQLVESGGGLVQAGGSLRLSCAASGIIFTVYAMGWYRQPPGTERELVAAITSSGGRTYYADSVKGRFTISRDNAKNTVYLQMNSLKPDDTAVYYCAARRPGYVRKDDYWGQGTQVTVSS | high polyreactivity
15 | QVQLVESGGGLVQAGGSLRLSCAASGIIFTYAMGWYRQAPGKERELVAAIDWRGGRTYYADSVKGRFTISRDNAKNTVYLQMNSLKPEDTAVYYCAVGVLYAGYFYRYRYYYWGQGTQVTVSS | high polyreactivity
16 | QVQLVESGGGLVQAGGSLRLSCAASGIIFTYSAMGWYRQAPGKERELVAAISRRGGTTYYADSVKGRFTISRDNAKNTVYLQMNSLKPEDTAVYYCAKKWGWFPVYYWGQGTQVTVSS | high polyreactivity
17 | QVQLVESGGGLVQAGGSLRLSCAASGIIFTYYAMGWYRQAPGKERELVAAISVSGSSTYYADSVKGRFTISRDNAKNTVYLQMNSLKPEDTAVYYCAARYQWGTRGFGYWGQGTLVTVSS | high polyreactivity
